Results published in the supplement of paper PMC9732359.
± gives the uncertainty stated by the source.

Test: protein stability index of a GFP-peptide fusion (yeast GPS) (PSI 1-4); higher = more stable; sorted into four equal gates, so the index is relative within each strain
How it was run: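 The protein stability index combines read frequencies across sorting gates, each weighted by its gate number and then summed. To obtain those frequencies, a pooled yeast library of GFP fusions to tiled 17-residue yeast protein peptides, on a plasmid also expressing Cherry, was grown to mid-log phase in leucine-free medium. The cells were sorted into four equal gates by GFP/Cherry ratio before plasmid amplification by PCR and Illumina sequencing.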

| Sequence | protein stability index (doa10∆) | protein stability index (pdr5∆) | protein stability index (san1∆) | protein stability index (ubr1∆) |
| --- | --- | --- | --- | --- |
| VRLPTKVLKISTRKTPN [RPS20] | 1.83 ± 0.087 | 2.22 ± 0.089 | 1.7 ± 0.15 | 2.42 ± 0.084 |
| SNQAVGQTWNFPEVFQV [SRB8] | 3.11 ± 0.21 | 3.36 ± 0.2 | 3.11 ± 0.14 | – |
| SGWTPFHIACSVGNLEV [NAS6] | 1.8 ± 0.095 | 1.89 ± 0.074 | 1.68 ± 0.1 | 1.94 ± 0.11 |
| ASRDKTLISWKLTGDDQ [ASC1] | 1.32 ± 0.14 | 1.68 ± 0.13 | – | 1.61 ± 0.094 |
| HDSILHSRILPKKALKV [RRP43] | 2.08 ± 0.038 | 2.04 ± 0.041 | 1.68 ± 0.079 | 1.75 ± 0.034 |
| RMPMDFKGVIVKIVDKD [PRE1] | 2.25 ± 0.17 | 3.11 ± 0.18 | 3.19 ± 0.22 | 2.37 ± 0.056 |
| VNEMNDQLAQELKDLET [NNF1] | 2.9 ± 0.23 | – | 3.27 ± 0.12 | – |
| RNNLPAKTFGASVRIFL [RPL33A] | 2.81 ± 0.052 | 2.76 ± 0.054 | 2.84 ± 0.053 | 2.68 ± 0.052 |
| ANAMNRMAKLCARFLGN [RPO31] | 3.12 ± 0.21 | – | – | – |
| RQTLAPYAVLSQFYELR [YJR042W/NUP85] | 1.98 ± 0.12 | 2.75 ± 0.24 | 2.42 ± 0.16 | 2.35 ± 0.09 |
| MSTESALSYAALILADS [RPP1A] | 1.75 ± 0.062 | 1.97 ± 0.073 | 1.72 ± 0.073 | 1.83 ± 0.046 |
| RGPRNSREAVRHFGMGP [RPL18A] | 2.53 ± 0.25 | 2.86 ± 0.18 | – | – |
| QIEGPFLIIVPKSTLDN [ISW2] | 2.88 ± 0.13 | 2.12 ± 0.1 | 2.17 ± 0.088 | 1.75 ± 0.097 |
| VDSQGLPYNWDALEMQW [ARP7] | 1.7 ± 0.066 | 2.35 ± 0.07 | 2.64 ± 0.1 | 1.91 ± 0.073 |
| TLQLYMVHREFLKLANG [RGR1] | 1.49 ± 0.047 | 1.63 ± 0.05 | 2.07 ± 0.058 | 2.28 ± 0.049 |
| KKIENTMLENITLRGVE [RPO21] | 3.38 ± 0.12 | 2.79 ± 0.12 | 2.98 ± 0.07 | 3.09 ± 0.077 |
| DLNTRISVIETIRVVTE [RPN5] | 1.64 ± 0.15 | 2.04 ± 0.12 | – | 2.97 ± 0.15 |
| MMVNISVLISIPLDNYD [PCI8] | 1.43 ± 0.038 | 1.42 ± 0.044 | 1.72 ± 0.065 | 1.41 ± 0.037 |
| PVSTASYRLLPQINILQ [RPC40] | 1.61 ± 0.053 | 1.66 ± 0.05 | 1.63 ± 0.07 | 1.97 ± 0.051 |
| DDDEIVMPVPNVRSSVL [SKP1] | 2.42 ± 0.053 | 2.25 ± 0.058 | 2.45 ± 0.062 | 2.48 ± 0.051 |
| SPELSLQRHLSLGIRPC [RRP43] | 2.54 ± 0.041 | 2.65 ± 0.053 | 2.73 ± 0.052 | 3.06 ± 0.048 |
| DPSLNLKLLAKSHVLLA [BRR2] | 2.02 ± 0.085 | 2.44 ± 0.1 | 1.79 ± 0.21 | 2.06 ± 0.15 |
| SYALSMEKDKLKNLLRS [SNU114] | 2.97 ± 0.25 | 2.24 ± 0.1 | 2.31 ± 0.16 | 2.68 ± 0.13 |
| IPGEYITYALSGYVRSR [RPS21B] | 2.42 ± 0.059 | 2.73 ± 0.095 | 2.39 ± 0.093 | 2.77 ± 0.047 |
| INGWKFESLPLKSAENS [SWP82] | 2.92 ± 0.067 | 3.25 ± 0.053 | 2.9 ± 0.055 | 3.03 ± 0.058 |
| ESMSYLPDPILKNFLSY [MCD1] | 2.34 ± 0.13 | 2.79 ± 0.12 | 2.5 ± 0.14 | 2.51 ± 0.098 |

| Sequence | protein stability index (doa10∆) | protein stability index (pdr5∆) | protein stability index (san1∆) | protein stability index (ubr1∆) |
| --- | --- | --- | --- | --- |
| ERKRKSVRGAIVGPDLA [RPS6A] | 3.38 ± 0.091 | 3.34 ± 0.075 | 3.33 ± 0.055 | 3.01 ± 0.13 |
| KGRNNESNNKKYPIFTG [YDL088C/ASM4] | 2.87 ± 0.064 | 2.95 ± 0.063 | 2.67 ± 0.059 | 2.9 ± 0.049 |
| LDKVINKELPINHTILG [RPN8] | 2.19 ± 0.077 | 2.27 ± 0.08 | 1.67 ± 0.13 | 2.4 ± 0.055 |
| RVNEMVQGMNDDIFIRY [ECM29] | 1.7 ± 0.095 | 1.89 ± 0.17 | 2.09 ± 0.19 | 2.39 ± 0.11 |
| DMDAESNESQNGKDSEI [SMC3] | 3.42 ± 0.12 | 3.22 ± 0.096 | 2.89 ± 0.1 | 3.31 ± 0.038 |
| LGICTHLGCVPIGEAGD [RIP1] | 2.21 ± 0.08 | 2.33 ± 0.076 | 1.79 ± 0.1 | 1.9 ± 0.083 |
| YVNYEISTAKAWGALIT [YML103C/NUP188] | 1.32 ± 0.052 | 1.43 ± 0.049 | 1.3 ± 0.073 | 1.4 ± 0.06 |
| LSEAWRCWKANIPWDVP [PRP8] | 2.15 ± 0.11 | 2.16 ± 0.098 | 1.1 ± 0.15 | 3.42 ± 0.15 |
| KENYPWELYTDFNEIVQ [POP3] | 2.42 ± 0.25 | – | 2.4 ± 0.16 | – |
| KINTRGAEDPKVLINDQ [SWI1] | 3.02 ± 0.2 | 3.34 ± 0.13 | 3.26 ± 0.14 | 3.11 ± 0.054 |
| ITKDHKVLARQQLQVLA [FAS2] | 1.29 ± 0.044 | 1.45 ± 0.062 | 1.82 ± 0.099 | 1.3 ± 0.047 |
| SGKRKPTKAAQRARDQD [GAL11] | – | 3.65 ± 0.16 | 3.25 ± 0.28 | 3.58 ± 0.15 |
| LQESINHVMYTEVSRKS [ECM29] | 2.47 ± 0.054 | 2.74 ± 0.062 | 2.47 ± 0.077 | 2.51 ± 0.035 |
| NKAQAKMDKRAKTSDSA [RPL8B] | 3.34 ± 0.23 | 3.02 ± 0.12 | 3.27 ± 0.066 | 3.31 ± 0.071 |
| ISYTSHIEGVVILKKNP [RPN1] | 2.57 ± 0.059 | 3.14 ± 0.078 | 2.87 ± 0.077 | 2.52 ± 0.046 |
| ITQIVEKDFCTSCLQNN [SRB8] | 2.35 ± 0.065 | 2.71 ± 0.077 | 2.68 ± 0.081 | 2.28 ± 0.049 |
| NVNNNNIGQQQVKKPRK [SWI1] | 3.42 ± 0.12 | 3.37 ± 0.16 | 3.29 ± 0.084 | 3.13 ± 0.21 |
| NSEKYYDEDPYGFEDES [RPB2] | 3.47 ± 0.18 | 3.32 ± 0.079 | 3.27 ± 0.066 | 3.25 ± 0.13 |
| DALLNSTTEHINIDDLL [YJL039C/NUP192] | 2.47 ± 0.24 | 2.73 ± 0.12 | 2.59 ± 0.092 | 3.17 ± 0.059 |
| TPISNEQTEGEPKKKRG [SRP68] | 3.16 ± 0.12 | 3.27 ± 0.17 | 3.27 ± 0.11 | 3.27 ± 0.068 |
| EERSNNLLTPQPTNFTT [MCD1] | 3.02 ± 0.061 | 3.11 ± 0.063 | 2.91 ± 0.061 | 3.12 ± 0.05 |
| NSKMPTRFPPAVFYTPK [PRP8] | 2.76 ± 0.056 | 3.09 ± 0.068 | 2.94 ± 0.054 | 2.93 ± 0.061 |
| KAEIPPEYAKVGDFLLQ [SIN4] | 1.52 ± 0.079 | 1.93 ± 0.06 | 1.7 ± 0.093 | 1.46 ± 0.061 |
| SCSFFAKLSDTLIIDQV [NUT1] | 2.22 ± 0.052 | 1.79 ± 0.051 | 2.06 ± 0.11 | 1.91 ± 0.039 |
| VSIDIEEPQLDLLDDVL [MTW1] | 2.62 ± 0.094 | 3.09 ± 0.067 | 3.24 ± 0.045 | 3.19 ± 0.048 |
